# According to paper doi:10.1101/2020.10.18.344481:
# What was measured:
# [1] = biological target: Thiomicrospira Cas2 (Thiomicrospira); experiment: cryo-EM structure
# [2] = biological target: Thiomicrospira Cas6-RT-Cas1 fusion protein (Thiomicrospira); experiment: cryo-EM structure
stoichiometry N [1],stoichiometry N [2],Substance
2,–,Thiomicrospira Cas2 (natural protein)
–,2,Thiomicrospira Cas6-RT-Cas1 fusion protein (enzyme)
